Laboratory results as given in PMC11697113, “The Hsc70 system maintains the synaptic SNARE protein SNAP-25 in an assembly-competent state and delays its aggregation [drawing 1]” (The Journal of Biological Chemistry, 2024).

Biological target: heat shock cognate 70 (Hsc70), human constitutively expressed Hsp70, wild type (human) (UniProt P11142)
Sequence (P11142 whole entry): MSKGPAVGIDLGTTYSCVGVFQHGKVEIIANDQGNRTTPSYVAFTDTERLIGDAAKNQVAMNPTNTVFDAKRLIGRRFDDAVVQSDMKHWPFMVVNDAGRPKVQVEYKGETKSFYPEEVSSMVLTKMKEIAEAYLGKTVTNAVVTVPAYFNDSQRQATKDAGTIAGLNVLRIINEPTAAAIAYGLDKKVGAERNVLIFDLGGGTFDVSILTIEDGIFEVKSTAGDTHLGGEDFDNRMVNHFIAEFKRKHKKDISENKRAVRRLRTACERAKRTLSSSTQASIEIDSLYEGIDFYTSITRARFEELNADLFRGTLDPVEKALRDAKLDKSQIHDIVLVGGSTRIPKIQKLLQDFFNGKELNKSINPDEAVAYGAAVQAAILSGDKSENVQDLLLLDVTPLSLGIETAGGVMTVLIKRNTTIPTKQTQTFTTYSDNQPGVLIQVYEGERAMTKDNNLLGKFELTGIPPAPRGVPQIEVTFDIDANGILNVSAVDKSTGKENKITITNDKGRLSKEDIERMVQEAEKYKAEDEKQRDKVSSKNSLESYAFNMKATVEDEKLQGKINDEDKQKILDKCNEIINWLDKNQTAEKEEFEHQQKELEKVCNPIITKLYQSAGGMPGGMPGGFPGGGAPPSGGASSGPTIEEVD

- lag time of SNAP-25 aggregation (50 μM SNAP-25, optical density at 360 nm, 37 °C) in the presence of Hsc70 (5 μM); ∼38 h without Hsc70: 65 h
Substance: SNAP-25 (SNAP-25B, Cys-less CS mutant), His tag cleaved (from UniProt P60880-1 1-206) (natural protein)
